Values joined by “and” are separate entries in the source; they are usually repeats but may differ in a detail not shown here. Identical values can stand only once.

Data on three molecules can be found in patent publication CN114573698A (dated 2022).

For experiment [1], the target named is T1, 人FcRn(β2M)-His蛋白 (human FcRn-ECD) (human, UniProt P61769 21-119).
T1 construct: Bought protein (Acro FCM-H5286); also called 人FcRn-ECD; FcRn-His
The experiment in a line: indirect ELISA, plate-bound human FcRn-ECD (method of Example 2.1). (ELISA stands for enzyme-linked immunosorbent assay.)

The target of experiment [2] is T1, 人FcRn(β2M)-His蛋白 (human FcRn-ECD). The experiment in a line: blocking ELISA pH 6.0, human IgG-biotin on plate-bound human FcRn-ECD (method of Example 4).
Experiment [3] shares this target. The experiment in a line: blocking ELISA, human IgG on plate-bound human FcRn-ECD.
Experiment [4] deals with T2, α2-Fc (human).
T2 construct: no linker is mentioned; also called FcRn功能结构域α2与人Fc融合蛋白; FcRnα2
T2 chain: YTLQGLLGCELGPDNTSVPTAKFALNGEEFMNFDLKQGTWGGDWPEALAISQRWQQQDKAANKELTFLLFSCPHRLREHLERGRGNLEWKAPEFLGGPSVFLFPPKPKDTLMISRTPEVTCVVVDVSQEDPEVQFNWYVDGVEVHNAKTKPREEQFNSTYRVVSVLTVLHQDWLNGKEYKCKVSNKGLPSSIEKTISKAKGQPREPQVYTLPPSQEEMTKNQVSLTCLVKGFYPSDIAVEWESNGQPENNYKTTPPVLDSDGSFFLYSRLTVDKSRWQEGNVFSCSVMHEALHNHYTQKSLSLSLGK
The experiment in a line: Western blot on domain-Fc fusion.

T1 sequence (chain, as listed by the source limits assumed, chain 1 of 2): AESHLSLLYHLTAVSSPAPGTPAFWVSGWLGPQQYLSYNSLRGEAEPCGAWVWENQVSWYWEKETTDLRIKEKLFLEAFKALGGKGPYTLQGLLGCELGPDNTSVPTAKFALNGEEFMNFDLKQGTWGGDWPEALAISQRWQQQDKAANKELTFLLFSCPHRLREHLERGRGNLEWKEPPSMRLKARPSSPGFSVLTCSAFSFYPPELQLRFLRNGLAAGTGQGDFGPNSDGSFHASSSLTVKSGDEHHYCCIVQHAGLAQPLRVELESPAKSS
T1 sequence (P61769 21-119 limits assumed, chain 2 of 2): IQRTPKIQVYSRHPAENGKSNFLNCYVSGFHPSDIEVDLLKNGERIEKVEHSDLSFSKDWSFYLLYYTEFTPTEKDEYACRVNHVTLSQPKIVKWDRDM

B1: SPGA01-ch102 (antibody, human IgG4 S228P, kappa)
heavy: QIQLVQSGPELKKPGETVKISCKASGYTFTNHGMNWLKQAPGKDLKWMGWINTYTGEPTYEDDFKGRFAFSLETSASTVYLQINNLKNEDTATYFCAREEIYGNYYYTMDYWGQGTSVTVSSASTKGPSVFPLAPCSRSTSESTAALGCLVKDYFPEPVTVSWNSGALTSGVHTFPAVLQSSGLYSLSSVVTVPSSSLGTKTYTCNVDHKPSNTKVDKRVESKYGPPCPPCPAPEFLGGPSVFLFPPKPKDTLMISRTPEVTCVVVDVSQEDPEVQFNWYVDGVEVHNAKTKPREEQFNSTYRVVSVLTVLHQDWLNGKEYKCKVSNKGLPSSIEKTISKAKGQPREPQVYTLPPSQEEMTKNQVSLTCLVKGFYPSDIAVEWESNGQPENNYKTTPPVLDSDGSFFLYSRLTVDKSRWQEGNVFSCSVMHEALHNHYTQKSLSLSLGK
light: DIQMTQTTSSLSASLGDRVTISCSASQGISKYLNWYQQKPDGTVKLLIYYTSILHSGVPSRFSGSGSGTDYSLTISNLEPEDIATYFCQQYSKLPPTFGGGTKLEITRTVAAPSVFIFPPSDEQLKSGTASVVCLLNNFYPREAKVQWKVDNALQSGNSQESVTEQDSKDSTYSLSSTLTLSKADYEKHKVYACEVTHQGLSSPVTKSFNRGEC
notes: also called 嵌合抗体SPGA01-ch102; SPGA1-ch102
One may read the EC50 as the concentration giving half of the maximal effect. Low values mean a more potent agent, high ones a less potent agent. By IC50 is commonly meant the concentration at which inhibition is half-maximal. In the case of B1, the EC50 in experiment [1] is 0.00973 µg/mL and 0.06 nM. In addition, in experiment [2], the IC50 was 0.0514 µg/mL and 0.34 nM.

B2: SPGA01-ch102mu (antibody, human IgG4 S228P, kappa)
heavy: QIQLVQSGPELKKPGETVKISCKASGYTFTNHGMNWLKQAPGKDLKWMGWINTYTGEPTYEDDFKGRFAFSLETSASTVYLQINNLKNEDTATYFCAREEIYGNYYYTMDYWGQGTSVTVSSASTKGPSVFPLAPCSRSTSESTAALGCLVKDYFPEPVTVSWNSGALTSGVHTFPAVLQSSGLYSLSSVVTVPSSSLGTKTYTCNVDHKPSNTKVDKRVESKYGPPCPPCPAPEFLGGPSVFLFPPKPKDTLYITREPEVTCVVVDVSQEDPEVQFNWYVDGVEVHNAKTKPREEQFNSTYRVVSVLTVLHQDWLNGKEYKCKVSNKGLPSSIEKTISKAKGQPREPQVYTLPPSQEEMTKNQVSLTCLVKGFYPSDIAVEWESNGQPENNYKTTPPVLDSDGSFFLYSRLTVDKSRWQEGNVFSCSVMHEALKFHYTQKSLSLSLGK
light: B1 light
notes: also called 突变的嵌合抗体SPGA01-ch102mu
B2: the EC50 in experiment [1] was 0.00976 µg/mL and 0.06 nM. Besides, the IC50 in experiment [3] was 0.0122 µg/mL and 0.08 nM.

B3: SPGA01-102 (antibody, V domains shown)
VH: QIQLVQSGPELKKPGETVKISCKASGYTFTNHGMNWLKQAPGKDLKWMGWINTYTGEPTYEDDFKGRFAFSLETSASTVYLQINNLKNEDTATYFCAREEIYGNYYYTMDYWGQGTSVTVSS
VL: DIQMTQTTSSLSASLGDRVTISCSASQGISKYLNWYQQKPDGTVKLLIYYTSILHSGVPSRFSGSGSGTDYSLTISNLEPEDIATYFCQQYSKLPPTFGGGTKLEIT
notes: Mouse monoclonal antibody from a hybridoma, purified on Protein G and detected with anti-mouse IgG; also called 鼠源抗人FcRn单克隆抗体
With B3, in experiment [4], the binding result is “binds”.
